Source: US8815213B2, “RGD-(bacterio)chlorophyll conjugates for photodynamic therapy and Imaging of Necrotic tumors” (Yeda Research and Development Co. Ltd., priority 2008, dated 2014)
Structures can show the parent of a compound that is named as a salt. Where two headings read alike, the source gives them in different places.

Key:
[1] = system: MDA-MB-231-RFP non-necrotic and necrotic tumors at the mammary pad; assay: Uptake of compound 25 in MDA-MB-231-RFP primary, necrotic and non necrotic tumors; format: in vivo, CD1-nude mice
Method: Two experiments were performed in order to determine whether the tumor up-take of compound 13 and the resulted accumulation of the NIR fluorescence signal are driven by the RGD moiety. In the first experiment the accumulation of the fluorescence signal at different times after compound 13 injection was compared to that of free 2H-MLT (compound 25) injection to CD1-nude mice grafted with MDA-MB-231-RFP non-necrotic (≦0.5 cm^3) and necrotic (˜1 cm^3) tumors at the mammary pad. The second experiment was a competition assay between compound 13 and free c(RGDfK).
Dynamic fluorescence images were acquired for both necrotic and non necrotic tumors every 1-1.5 h for 8.5-9 h, and at 24 h after initial injection of compound 25 (FIGS. 18A-18B and 20A-20B) and for every 24 h for the following three days (FIGS. 19A-19B and 21A-21B). […] The fluorescence signal values were ˜2 orders of magnitude smaller than the maximally observed values for compound 13 (at much longer time intervals). The fluorescence signal dropped down to non-significant values already at 20 min post injection. Meanwhile, the fluorescence signal accumulated mostly in the liver and in the heart.

[2] = system: MLS-mBanana necrotic tumor domains; assay: Excised tumor fluorescence imaging, MLS-mBanana; format: in vivo, mice; conditions: 7 days post drug injection
Method: (§1) Mice were sacrificed, tumors were excised, cut in half and imaged at different time intervals: 10 min, 1, 4 and 24 h, 3, 5 and 7 days for MDA-MB-231-RFP and 7 days for MLS-mBanana using the Xenogen IVIS® System. Filter sets used for the fluorescence imaging are described in (vii).
Here the results were somewhat different. In most cases the necrosis pattern in this type of tumor was not central, namely, there was a wide spread necrosis that was not specifically located in the middle of the tumor or generated from one place in the tumor. In these cases, the accumulation was not as prolonged. In the few cases where central necrosis was observed, the accumulation pattern was similar to that in the MDA-MB-231-RFP tumors. FIGS. 31-32 show the results obtained 7 days post drug injection.

[3] = system: MDA-MB-231-RFP non-necrotic tumors (~0.5 cm^3); conditions: mouse, in vivo
Method: (§2) (vi) Mouse tumor model—MDA-MB-231-RFP fluorescent human breast cancer cells and MLS-mBanana fluorescent human ovarian cancer cells (5×10^6 in 100 μl saline) were trypsinated and collected at subconfluency and then inoculated into the back or mammary fat pad of female mice. Tumors were allowed to develop to two desired sizes—necrotic tumors (˜1 cm^3, within 3-4 weeks) and non-necrotic tumors (˜0.5 cm^3 within 1-2 weeks).
(§3) (vii) Whole body fluorescence imaging—Mice were anaesthetized by i.p. injection of 30 μl mixture of 85:15 ketamine:xylazine. […] Red fluorescent protein (RFP), pRSETB-mBanana and the photosensitizers fluorescence were monitored by in-vivo optical imaging system, IVIS®100 (Xenogen Corp., Alameda, Calif.). Main filter set for tumor imaging comprised excitation filter at 500-550 nm and emission filter at 575-650 nm; Background filter set for subtracting tissue auto-fluorescence comprised excitation filter at 460-490 nm and emission filter at 575-650 nm. Drugs imaging main filter set comprised excitation filter at 665-695 nm and emission filter at 810-875 nm. Images were obtained during the same exposure time and are illustrated on the same linear color scale to allow for a qualitative comparison.
(§4) The same parameters were next examined in tumors ≦0.5 cm^3, which are non-necrotic.

[4] = system: human ovarian MLS-mBanana primary tumors, necrotic (>1 cm^3); assay: In-vivo NIR fluorescence imaging of uptake in MLS-mBanana primary necrotic tumors; parameters: species or system CD-1 nude female mice
Text: In order to establish the generality of the results obtained in the experiments above, the accumulation of compound 13 in the necrotic domain was further examined in a different tumor type, generated from MLS-mBanana human ovarian cancer cell line. […] Shortly after injection, the compound 13 NIR fluoresces was mostly detected from the liver and the tumor.

[5] = system: orthotopic human breast MDA-MB-231-RFP primary tumor, necrotic (~1 cm^3); conditions: mouse, in vivo
Method: as §2, §3
The accumulation pattern of compound 13 in necrotic MDA-MB-231-RFP tumors (≧1 cm^3) in vivo was examined. […] Whole animal images were recorded concomitantly, using the filter sets as described in Materials and Methods section (vii) above. Dynamic fluorescence images were acquired every 1-1.5 h for 9 h, and at 24 h post injection of compound 13 (FIGS. 4A-4B), and then for every 24 h for the next 7 days (FIGS. 5A-5B).

[6] = system: MDA-MB-231-RFP primary non-necrotic tumors; assay: Competition assay between compound 13 and free c(RGDfK) binding; format: in vivo, mice; conditions: 24 h
Method: (ix) Competition assay between compound 13 and free c(RGDfK) binding—Mice were injected with excess (8.5 μmol) of free c(RGDfK) peptide one hour prior to the injection of compound 13 (140 nmol). The control group was injected only with compound 13 (140 nmol). Fluorescent images were taken 24 h post compound 13 injection. Fluorescence imaging main filter set was used as described in (vii).
Compound 13 was administrated with or without prior injection of c(RGDfK) as described in Example 3.

[7] = system: MDA-MB-231-RFP necrotic tumor domains; assay: Excised tumor fluorescence imaging, viable versus necrotic domains; format: in vivo, mice
Method: as §1
The markedly different dynamic fluorescence patterns of necrotic and non-necrotic breast tumor xenografts implanted in the mammary pads, motivated investigation of the correlation between the tumor histology and compound 13 fluorescence signal accumulation. […] Images were taken at several time points (10 min, 1, 4 and 24 h, 3, 5 and 7 days post injection) using Xenogen IVIS® System as described in Materials and Methods, section (vii). Results shown in FIGS. 23-29 present compound 13 fluorescence accumulation at different time points. For each time point, 3 animals were tested. […] At 4 h, there was some diffusion towards the necrotic domain. […] In this set of experiments it was shown that as time progresses, compound 13 moves through the viable domain into the necrotic domain and accumulates there specifically for a long period of time.
In view of the pattern of accumulation observed for compound 13, other Bchl derivatives were tested. […] Images were taken using Xenogen IVIS® System as described above. […] Similar results were observed when tumors were excised 3 and 5 days post drug injection (N=3 for each time point).

[8] = system: MDA-MB-231-RFP necrotic tumors; assay: Fluorescence signal measurement in necrotic tumors, tumor vs. collateral side; format: in vivo; conditions: average of 9 mice
Method: (viii) Fluorescence signal measurement in necrotic tumors—Tumor margins—region of interest (ROI), from the whole body in-vivo images was marked and the fluorescence signal within the circled margins was expressed in photon/sec.
The same ROI was used to measure photon/sec in the collateral side. In addition, for background measurements, tumor and collateral side ROIs were measured in three untreated mice and averaged. Measured values of the fluorescence from each ROI were divided by the area to provide normalized fluorescence signal intensity in photon/sec/cm^2. Signal measurements were collected from 15 min to 216 h post compound 13 injection. In each time point, the background was subtracted and the average was calculated as was the ratio between the fluorescence in the tumor margins and the collateral side.
In order to evaluate semi-quantitatively the accumulation pattern of compound 13 in necrotic tumors, the average fluorescence signal for compound 13 in necrotic tumors of 9 mice was calculated and plotted over 216 h, at several time points (FIG. 8). From 12 h post injection and onward the fluorescence signal from the tumor became distinctively stronger than that of an equivalent control region on the collateral side. The ratio of the fluorescence between the tumor and the collateral side increased in time and reached a plateau at ˜8 from 192 h.

[9] = system: MLS-mBanana non-necrotic tumors (~0.5 cm^3); conditions: mouse, in vivo
Text: Red fluorescent protein (RFP), pRSETB-mBanana and the photosensitizers fluorescence were monitored by in-vivo optical imaging system, IVIS®100 (Xenogen Corp., Alameda, Calif.). Main filter set for tumor imaging comprised excitation filter at 500-550 nm and emission filter at 575-650 nm; Background filter set for subtracting tissue auto-fluorescence comprised excitation filter at 460-490 nm and emission filter at 575-650 nm. Drugs imaging main filter set comprised excitation filter at 665-695 nm and emission filter at 810-875 nm. Images were obtained during the same exposure time and are illustrated on the same linear color scale to allow for a qualitative comparison.

[10] = system: MDA-MB-231-RFP non-necrotic tumors (~0.5 cm^3); assay: In-vivo whole body NIR fluorescence imaging of drug up-take in primary non-necrotic MDA-MB-231-RFP xenograft tumors
Method: as §2, §3, §4

[11] = system: xenografts of primary tumors; conditions: up to; cited from earlier work

Molecule: CC[C@H]1c2cc3[nH]c(c(CC(=O)OC)c4nc(cc5[nH]c(cc(n2)[C@@H]1C)c(C(C)=O)c5C)[C@@H](C)[C@@H]4CCC(=O)O)c(C(=O)NCCS(=O)(=O)[O-])c3C.[K+] [compound 25, 3^1-oxo-15-methoxycarbonylmethyl-Rhodo-bacteriochlorin 13^1-(2-sulfoethyl) amide potassium salt]
- accumulation in small (non-necrotic) and large (necrotic) tumors ([1]; mouse, in vivo): no short or long term accumulation was observed
- fluorescence signal values, smaller than the maximally observed values for compound 13 ([1]; mouse, in vivo): ~2 orders of magnitude
- time at which fluorescence signal dropped to non-significant values ([1]; post injection): ≤ 20 min
- time of maximal concentration (NIR fluorescence signal) in the tumor ([1]; post injection, if any concentration was observed at all): 5 to 10 min

Molecule: CC[C@H]1c2cc3[nH]c(c(CC(=O)OC)c4nc(cc5[nH]c(cc(n2)[C@@H]1C)c(C(C)=O)c5C)[C@@H](C)[C@@H]4CCC(=O)NCCCC[C@@H]1NC(=O)[C@@H](Cc2ccccc2)NC(=O)[C@H](CC(=O)O)NC(=O)CNC(=O)[C@H](CCCNC(=N)N)NC1=O)c(C(=O)NCCS(=O)(=O)O)c3C [compound 13, 3^1-oxo-15-methoxycarbonylmethyl-Rhodobacteriochlorin 13^1-(2-sulfoethyl) amide-17^3-c(RGDfK)amide potassium salt]
- presence of drug in excised tumor ([2]; central necrosis): clearly present in the necrotic domain
- presence of drug in excised tumor ([2]; no central necrosis): not present
- clearance from the tumor after accumulation [3]: < 24 h
- complete drug clearance by that time [3]: ≤ 3 days
- fluorescence from the non-necrotic tumors [3]: practically no fluorescence
- time of peak tumor fluorescence, averaged measurements [3]: 1 to 6.5 h
- clearance compared with MDA-MB-231-RFP necrotic tumors ([4]; mouse, in vivo): markedly faster
- clearance from the tumor almost completed ([4]; mouse, in vivo): 3 days
- complete drug clearance by that time ([4]; mouse, in vivo): ≤ 4 days
- time of maximum concentration in the necrotic zone ([4]; mouse, in vivo): 24 h
- concentration in necrotic tumors versus non-necrotic tumors ([4]; same linear fluorescence scale, 2 days post injection): much higher
- time of peak tumor concentration ratio, compared to other organs [5]: ≥ 48 h
- clearance from the liver in the following days ([5]; iv, 15 mg/kg): completely clearing from the liver
- clearance from the tumor thereafter ([5]; iv, 15 mg/kg): extremely slow clearance
- accumulation in the tumor ([6]; 140 nmol alone (control group)): detectable
- accumulation in the tumor ([6]; 140 nmol, 1 h after 8.5 μmol free c(RGDfK)): no accumulation in the tumor was detected
- location of drug fluorescence in excised tumor ([7]; 10 min to 4 h post drug injection, 15 mg/kg): only at the viable area
- location of drug fluorescence in excised tumor ([7]; 24 h post injection): higher drug fluorescence from the necrotic domain
- location of drug fluorescence in excised tumor ([7]; from three days post injection (3, 5 and 7 days)): shifted completely to the necrotic zone
- ratio of the fluorescence between the tumor and the collateral side, plateau ([8]; from 192 h post injection): ~8
- time from which tumor fluorescence signal is distinctively stronger than collateral side ([8]; post injection): ≥ 12 h
- almost complete drug clearance by that time [9]: ≤ 4 days
- time at which NIR fluorescence reached peak values in the tumor [9]: ~1 h
- time of peak tumor fluorescence, average measurements [9]: 1 to 3.5 h

Molecule: Palladium 3^1-oxo-15-methoxycarbonyl-methyl-Rhodobacteriochlorin 13^1-(2-sulfoethyl)amide-17^3-c(RGDfK)amide potassium salt [compound 24]
- time at which NIR fluorescence reached peak values in the liver ([10]; 15 mg/kg i.v., post drug injection): 5.5 h
- time at which NIR fluorescence reached peak values in the tumor ([10]; 15 mg/kg i.v., post injection): ~2.5 h
- fluorescence from the non-necrotic tumors ([10]; 24 hours post injection): practically no fluorescence
- time of peak tumor fluorescence, averaged measurements ([10]; post drug injection, 16 animals (compound 13), 5 animals (compound 24)): 1 to 4.5 h
- accumulation in xenografts of primary tumors [11]: 4 to 8 µM
- presence of drug in excised tumor ([7]; nine days post drug injection, N=3): clearly present in the necrotic domain
